This note sets out measurements from paper PMC3285296.

Some results are limits rather than exact numbers.

Assay in all cases: co-IP
Experiment [1] addresses Flag-tagged glycogen phosphorylase K470Q/K796Q (GP^K2Q) (human) (UniProt P06737).
Experiment [2] has as its target Flag-tagged glycogen phosphorylase (GP), wild type (human) (UniProt P06737).
Experiment [3] shares this target. This is another data set of the same source.

Regarding “HA-tagged protein phosphatase 1 alpha (HA-PP1α) (from UniProt P62136 1-330) (enzyme)”, the PP1α co-immunoprecipitated, against wild type GP in experiment [1] was 2 fold. The increase of the co-precipitate with NAM+TSA against untreated cells in experiment [2] is above 100%.

B1: HA-tagged hepatic glycogen binding subunit GL of PP1 (HA-GL) (natural protein)
chain: MMAVDIEYRYNCMAPSLRQERFAFKISPKPSKPLRPCIQLSSKNEASGMVAPAVQEKKVKKRVSFADNQGLALTMVKVFSEFDDPLDMPFNITELLDNIVSLTTAESESFVLDFSQPSADYLDFRNRLQADHVCLENCVLKDKAIAGTVKVQNLAFEKTVKIRMTFDTWKSYTDFPCQYVKDTYAGSDRDTFSFDISLPEKIQSYERMEFAVYYECNGQTYWDSNRGKNYRIIRAELKSTQGMTKPHSGPDLGISFDQFGSPRCSYGLFPEWPSYLGYEKLGPYY
Molecule B1 returned an increase of the co-precipitate in 25 mM glucose against glucose free medium in experiment [3] of 100%.
